Common to all, as to type: biochemical
In one assay the target is T1, Human plasma kallikrein (Homo sapiens, UniProt P03952).
T1 construct: (7) Human plasma kallikrein (Kabi, Daiichi Kagaku Yakuhin); purchased Kabi (via Daiichi Kagaku Yakuhin); host or cells: human plasma
Description: Assay for kallikrein inhibitory activity (Example 36). The note with it: final concentration up to ×10^-5 M; enzyme 1.0 × 10^-7 M. The protocol:
H. Human plasma kallikrein (Protogene, Funakoshi Yakuhin)
Kallikrein: 50 mM Tris-HCl, 361 mM NaCl, 0.01 mg/ml Polybrene (pH 7.8) […]
(§1) Substrate solution: for the enzymes F, G, H and I, the following substrate f, g, h or i, respectively, was dissolved to a final concentration shown in Table 24.
h. H.D-Pro-Phe-Arg-pNA (Kabi Vitram)
(§2) To wells of an ELISA 96-well microtiter plate, were added a solution of (Arg^58 -Ala^107) SLPI obtained in Example 34 and then the enzyme solution, and the mixture was incubated at 37° C. for 10 minutes. Next, the substrate solution was added to develop the color, whose absorption was then measured at 405 nm. As a control, SLPI was used.

The next assay concerns the target T2, Human plasma plasmin (Homo sapiens, UniProt P00747).
T2 construct: (6) Human plasma plasmin (Kabi, Daiichi Kagaku Yakuhin); purchased Kabi (via Daiichi Kagaku Yakuhin); host or cells: human plasma
Description: Assay for plasmin inhibitory activity (Example 36). The note with it: final concentration up to ×10^-5 M; enzyme 1.0 × 10^-7 M. As to the method: G. Human plasma plasmin (sigma)
Plasmin: 50 mM Tris-HCl, 100 mM NaCl (pH 7.4) […]
as §1
g. H.D-Val-Leu-Lys-pNA (Kabi Vitrum)
as §2

Assay [1] relates to polymorphonuclear leucocyte elastase from human sputum. The experiment in a line: Inhibitory constant (Ki) assay, elastase (Example 37). The following applies: from Table 26. The protocol: Method for assay is as follow.
Buffer: 0.1M N-(2-hydroxyethyl)piperazine-N'-2-ethanesulfonic acid (HEPES), 1.0M NaCl, 0.1% polyethylene glycol (pH 7.5)
Enzyme solution: the following enzyme was dissolved in the above-mentioned buffer to a concentration 9 times that shown in Table 25.
(§3) A. Polymorphonuclear leucocyte elastase from human sputum (EPC Co., Funakoshi Yakuhin)
Substrate solution: for the enzymes A and B, the following substrate a or b was dissolved in a solution of DMSO+the above-mentioned buffer (1:9), or in DMSO, respectively.
(§4) a. MeO-Suc-Ala-Ala-Pro-Val-pNA (Bachem) […]
To wells of an ELISA 96-well microtiter plate, were added 120 μl of the buffer, 20 μl of a sample solution of ([…] -Ala^107) SLPI obtained in Example 25, and 20 μl of the enzyme solution in this order, an the mixture was reacted at 37° C. for 1 hour. Next, 20 μl of the substrate was added to develop at 25° C. Absorption of the developed color was measured at 405 nm. As a control, SLPI was used.
On the basis of the result thus obtained, an inhibitory constant (Ki) of (Arg^58 -Ala^107) SLPI of the present invention was calculated according to the method of Henderson (Henderson, P. J. F. (1972), Biochem. J. 127, 321-333).

The next assay has as its system Porcine FXa. The experiment in a line: Assay for Fxa inhibitory activity (Example 36). The note with it: final concentration up to ×10^-5 M; enzyme 1.0 × 10^-8 M. The protocol:
I. Porcine FXa (Daichi Seiyaku)
(§5) Thrombin and FXa: 50 mM Tris-HCl, 7.5 mM EDTA-2Na, 175 mM NaCl (pH 8.4) […]
as §1
i. Ratio 1:1 mixture of the following compounds: [drawing 6]
as §2

The target of assay [2] is T3, polymorphonuclear leucocyte elastase from human sputum (Homo sapiens, UniProt P08246).
T3 construct: Polymorphonuclear leukocyte elastase from human sputum (EPC Co; Funakoshi Yakuhin); purchased EPC Co. (via Funakoshi Yakuhin); host or cells: human sputum
T3 sequence (P08246 30-267): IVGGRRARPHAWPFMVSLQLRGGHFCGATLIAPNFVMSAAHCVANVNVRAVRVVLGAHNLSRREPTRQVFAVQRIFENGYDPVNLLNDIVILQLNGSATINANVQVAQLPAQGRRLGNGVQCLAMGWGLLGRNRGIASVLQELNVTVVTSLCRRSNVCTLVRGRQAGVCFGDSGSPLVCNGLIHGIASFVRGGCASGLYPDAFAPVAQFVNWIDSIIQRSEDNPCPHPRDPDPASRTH
Description: Assay for elastase inhibitory activity (Example 35). The following applies: enzyme 2 × 10^-8 M, substrate 3.0 × 10^-4 M. As to the method:
(§6) Assay method used was as follows.
(§7) Buffer: 0.1M (2-hydroxyethyl)piperazine-N'-2-ethansulfonic acid (HEPES), 0.5M NaCl, pH 7.5.
(§8) Enzyme concentration: the following enzyme was dissolved in the above-mentioned buffer to a concentration 9 times that shown in Table 22.
as §3
Substrate solution: for the enzymes A, B, C, D and E, the following substrate a, b, c, d or e, respectively, was dissolved in a solution of DMSO +the above-mentioned buffer (1:9) (note, final concentration of DMSO was 10% in the buffer) to a concentration of 9 times that shown in Table 22.
as §4
(§9) To wells of an ELISA 96-well microtiter plate, were added 120 μl of the buffer and the 20 μl of a sample solution of (Arg^58 -Ala^107) SLPI obtained in Example 34, followed by 20 μl of the enzyme solution. The mixture was reacted at 37° C. for 10 minutes. Next, 20 μl of the substrate was added, and developed at 37° C. The developed color was measured by absorption at 405 nm.
(§10) As a control the same procedure was carried out using SLPI.

The next assay addresses T4, Bovine spleen trypsin (Bos taurus, UniProt P00760).
T4 construct: purchased Sigma
T4 sequence (P00760 24-246): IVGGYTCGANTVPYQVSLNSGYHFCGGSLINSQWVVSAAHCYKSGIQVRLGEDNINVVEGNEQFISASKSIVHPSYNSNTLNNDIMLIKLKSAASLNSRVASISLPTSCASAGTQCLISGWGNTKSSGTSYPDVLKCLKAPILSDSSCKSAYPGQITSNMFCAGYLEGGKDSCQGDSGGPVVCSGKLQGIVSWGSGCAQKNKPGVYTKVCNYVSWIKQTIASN
Description: Assay for trypsin inhibitory activity (Example 35). The following applies: enzyme 2 × 10^-7 M, substrate 1.0 × 10^-3 M. As to the method: as §6, §7, §8
B. Bovine spleen trypsin (Sigma)
Substrate solution: for the enzymes A, B, C, D and E, the following substrate a, b, c, d or e, respectively, was dissolved in a solution of DMSO +the above-mentioned buffer (1:9) (note, final concentration of DMSO was 10% in the buffer) to a concentration of 9 times that shown in Table 22. […]
as §9, §10

For the next assay, the target named is T5, Human plasma thrombin (Homo sapiens, UniProt P00734).
T5 construct: (5) Human plasma thrombin (Kabi, Daiichi Kagaku Yakuhin); purchased Kabi (via Daiichi Kagaku Yakuhin); host or cells: human plasma
The experiment in a line: Assay for thrombin inhibitory activity (Example 36). The following applies: final concentration up to ×10^-5 M; enzyme 3 × 10^-9 M. As to the method:
F. Human plasma thrombin (Sigma)
as §5, §1
f. H.D-Phe-Pip-Arg-pNA (Kabi Vitrum)
as §2

T1 sequence (P03952 391-638 limits assumed): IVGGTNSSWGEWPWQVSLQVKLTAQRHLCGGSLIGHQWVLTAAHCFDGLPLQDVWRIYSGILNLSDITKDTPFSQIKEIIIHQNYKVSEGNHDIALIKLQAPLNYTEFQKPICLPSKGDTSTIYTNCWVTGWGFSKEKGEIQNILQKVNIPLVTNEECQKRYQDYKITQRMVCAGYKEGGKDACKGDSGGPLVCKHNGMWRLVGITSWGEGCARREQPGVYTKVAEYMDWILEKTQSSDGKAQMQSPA
T1 sequence (P03952 20-390 partner limits assumed): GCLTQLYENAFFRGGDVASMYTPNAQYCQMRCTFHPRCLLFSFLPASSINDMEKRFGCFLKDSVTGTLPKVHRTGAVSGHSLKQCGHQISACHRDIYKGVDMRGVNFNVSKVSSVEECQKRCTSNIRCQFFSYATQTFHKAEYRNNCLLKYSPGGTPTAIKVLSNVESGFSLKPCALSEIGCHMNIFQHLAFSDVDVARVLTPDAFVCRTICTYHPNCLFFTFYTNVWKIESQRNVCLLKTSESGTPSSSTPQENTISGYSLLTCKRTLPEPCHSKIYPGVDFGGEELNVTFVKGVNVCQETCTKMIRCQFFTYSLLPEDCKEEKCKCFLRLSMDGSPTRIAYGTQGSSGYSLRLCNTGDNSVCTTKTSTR
T2 sequence (P00747 581-810 limits assumed): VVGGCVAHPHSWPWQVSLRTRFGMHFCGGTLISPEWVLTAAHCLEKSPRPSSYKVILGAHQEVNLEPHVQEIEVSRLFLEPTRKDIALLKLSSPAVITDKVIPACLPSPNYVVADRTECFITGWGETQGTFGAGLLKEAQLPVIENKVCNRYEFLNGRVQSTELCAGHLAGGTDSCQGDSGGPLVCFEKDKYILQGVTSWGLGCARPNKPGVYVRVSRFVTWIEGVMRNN
T2 sequence (P00747 97-580 partner limits assumed): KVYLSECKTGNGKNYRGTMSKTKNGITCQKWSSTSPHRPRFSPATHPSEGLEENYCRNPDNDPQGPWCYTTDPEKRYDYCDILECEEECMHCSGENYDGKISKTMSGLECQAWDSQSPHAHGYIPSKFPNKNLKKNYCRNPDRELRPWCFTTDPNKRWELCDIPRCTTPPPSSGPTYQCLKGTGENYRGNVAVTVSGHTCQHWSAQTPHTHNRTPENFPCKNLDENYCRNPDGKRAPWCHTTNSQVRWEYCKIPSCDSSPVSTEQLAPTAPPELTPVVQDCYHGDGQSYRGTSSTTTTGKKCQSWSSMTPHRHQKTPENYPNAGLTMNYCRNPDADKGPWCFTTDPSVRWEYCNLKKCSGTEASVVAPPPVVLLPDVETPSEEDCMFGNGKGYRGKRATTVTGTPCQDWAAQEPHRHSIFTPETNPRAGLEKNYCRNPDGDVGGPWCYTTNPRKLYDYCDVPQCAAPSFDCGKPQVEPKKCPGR

As a reminder, the IC50 is the midpoint of a concentration-inhibition curve. High values mean a need for much substance, low ones inhibition by little substance. On to “(Arg^58 -Ala^107) SLPI: polypeptide having an amino acid sequence starting with the 58th Arg and ending at the 107th Ala of SLPI (RRKPGKCPVTYGQCLMLNPPNFCEMDGQCKRDLKCCMGMCGKSCVSPVKA)”, for which, in the assay with Human plasma kallikrein, the “inhibitory activity to kallikrein” value is recorded as “did not exhibit inhibitory activity”. Further, the “inhibitory activity to plasmin” value with Human plasma plasmin is recorded as “did not exhibit inhibitory activity”. In addition, the “relative ratio of inhibitory activity on trypsin to that on elastase (Ki(T)/Ki(E))” value in assay [1] is on record as “about 12,000”. Besides, the “inhibitory activity to FXa” value in the assay on Porcine FXa is recorded as “did not exhibit inhibitory activity”. The IC50 in assay [2] amounted to 0.012 µM; with Bovine spleen trypsin, 2 µM. Also, the “inhibitory activity to thrombin” value with Human plasma thrombin is “did not exhibit inhibitory activity”.

Source of the values: patent publication US5851983A, “Elastase inhibitory polypeptide and process for production thereof by recombinant gene technology” (Teijin Limited, priority 1987, dated 1998).
